Values belong to the binder of their own block, whether it stands above or below them.
How the values were obtained:
Mouse Blade 1-3 = target: T1, Mouse Blade 1-3; experiment: flow cytometry on transfected HEK293 cells;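 note: antibodies applied at 50 µg/ml, binding called specific when fluorescence exceeds the mean signal on a negative control chicken or mouse MET construct plus four SD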
T1 construct: human/mouse chimera on transfected HEK293 cells; also called AA 25-233
Procedure: (§1) Cut-off values defined as the average fluorescence signal of all antibodies tested at 50 μg/ml to the negative control chicken or mouse MET construct+four standard deviations were employed to discriminate background binding from specific binding for the domain exchange or blade exchange constructs.
T1 MET ECD-SV5-GPI fusion: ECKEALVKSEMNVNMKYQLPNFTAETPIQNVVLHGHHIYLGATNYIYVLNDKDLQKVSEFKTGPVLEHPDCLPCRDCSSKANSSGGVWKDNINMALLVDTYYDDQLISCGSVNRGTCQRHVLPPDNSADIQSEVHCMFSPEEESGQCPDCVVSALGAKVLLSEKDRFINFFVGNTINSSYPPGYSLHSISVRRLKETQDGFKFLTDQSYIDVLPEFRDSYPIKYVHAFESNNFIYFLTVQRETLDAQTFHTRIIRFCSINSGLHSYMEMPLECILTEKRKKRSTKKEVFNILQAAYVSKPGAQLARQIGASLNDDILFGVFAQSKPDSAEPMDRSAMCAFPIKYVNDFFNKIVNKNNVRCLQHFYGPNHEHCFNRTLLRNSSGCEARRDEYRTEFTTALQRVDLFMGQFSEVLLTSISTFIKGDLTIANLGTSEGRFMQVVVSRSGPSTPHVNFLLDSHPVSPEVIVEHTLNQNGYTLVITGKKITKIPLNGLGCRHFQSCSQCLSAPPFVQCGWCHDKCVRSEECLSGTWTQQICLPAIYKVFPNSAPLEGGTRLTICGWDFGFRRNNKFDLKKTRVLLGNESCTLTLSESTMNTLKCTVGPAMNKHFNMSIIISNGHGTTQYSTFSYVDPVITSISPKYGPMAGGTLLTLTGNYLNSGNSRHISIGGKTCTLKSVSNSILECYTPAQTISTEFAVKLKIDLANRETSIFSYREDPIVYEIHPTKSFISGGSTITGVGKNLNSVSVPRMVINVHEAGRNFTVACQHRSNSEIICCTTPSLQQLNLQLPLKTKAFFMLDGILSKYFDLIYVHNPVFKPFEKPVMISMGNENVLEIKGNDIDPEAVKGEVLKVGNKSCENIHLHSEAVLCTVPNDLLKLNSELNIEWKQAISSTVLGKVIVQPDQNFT

LS5 = target: T2, LS5; experiment: flow cytometry on transfected HEK293 cells;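 note: antibodies applied at 50 µg/ml, binding called specific when fluorescence exceeds the mean signal on a negative control chicken or mouse MET construct plus four SD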
T2 construct: human/mouse chimera on transfected HEK293 cells; also called AA 25-473
Procedure: as §1
T2 MET ECD-SV5-GPI fusion: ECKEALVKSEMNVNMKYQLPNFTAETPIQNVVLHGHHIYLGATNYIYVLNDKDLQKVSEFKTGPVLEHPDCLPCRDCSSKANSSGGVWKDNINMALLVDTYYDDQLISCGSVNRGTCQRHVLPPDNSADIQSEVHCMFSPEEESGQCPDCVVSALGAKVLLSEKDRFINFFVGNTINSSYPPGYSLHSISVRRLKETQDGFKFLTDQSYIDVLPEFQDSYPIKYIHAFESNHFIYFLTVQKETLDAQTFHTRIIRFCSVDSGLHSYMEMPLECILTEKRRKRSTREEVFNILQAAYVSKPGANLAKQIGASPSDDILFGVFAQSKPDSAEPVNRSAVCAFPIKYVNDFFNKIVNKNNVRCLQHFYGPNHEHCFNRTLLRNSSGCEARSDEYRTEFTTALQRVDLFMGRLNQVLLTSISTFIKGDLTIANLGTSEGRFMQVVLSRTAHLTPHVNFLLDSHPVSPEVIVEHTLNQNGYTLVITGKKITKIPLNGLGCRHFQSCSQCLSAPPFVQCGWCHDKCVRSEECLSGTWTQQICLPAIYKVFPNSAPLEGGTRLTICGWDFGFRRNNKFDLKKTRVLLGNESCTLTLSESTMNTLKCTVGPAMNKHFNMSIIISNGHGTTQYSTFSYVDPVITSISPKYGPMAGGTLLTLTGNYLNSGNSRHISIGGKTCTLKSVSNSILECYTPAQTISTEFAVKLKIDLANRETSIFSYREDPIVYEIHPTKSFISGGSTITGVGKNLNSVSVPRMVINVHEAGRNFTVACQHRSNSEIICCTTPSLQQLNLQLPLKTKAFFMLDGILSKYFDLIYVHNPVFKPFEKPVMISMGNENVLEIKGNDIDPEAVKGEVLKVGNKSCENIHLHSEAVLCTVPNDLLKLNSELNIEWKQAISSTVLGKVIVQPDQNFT

[1] = target: T3, His tagged cynomolgus MET ECD (Sinobiological) (cynomolgus); experiment: SPR (Bio-Rad XPR-36); antibody captured on anti-human IgG Fc surface, MET ECD 25 to 1.56 nM, 1:1 Langmuir fit
T3 construct: extracellular domain; Bought monovalent antigen
Procedure: His tagged human or cynomolgus MET ECD antigens were purchased from Sinobiological, China. […] Measurements were conducted with a plate rotation speed of 1000 rpm and sensors were regenerated and reused by brief 5 second alternations between exposure to 10 mM Glycine:HCl buffer (pH 1.5) or PBS buffer containing 1% BSA and 0.001% Tween 20 three times. For the Surface Plasmon Resonance experiments conducted on the Bio-Rad XPR-36 instrument, anti-MET antibodies were adjusted to a concentration of 0.25-0.5 μg/ml and captured on anti-human IgG Fc surfaces generated by immobilizing a monoclonal anti-human Fc antibody (Biacore, Denmark). […] The recorded binding responses were fitted to a simple Langmuir 1:1 binding model for calculation of the on-rate (kon or ka), off-rate (koff or kd) and affinity (KD) constants using double referencing.

[2] = target: T4, His tagged human MET ECD (Sinobiological) (human, UniProt P08581 25-932); experiment: BLI (Octet QK384); antibody captured on anti-human Fc sensors, monovalent MET ECD in solution, 1:1 Langmuir fit
T4 construct: Bought monovalent antigen; also called human MET antigen; not shown: His tag

binding result (Mouse Blade 1-3): no binding (tested: 50 µg/ml) | binding result (LS5): no binding (tested: 50 µg/ml) | Kd [1]: 0.074 nM | koff [1]: 5.4e-05 s⁻¹ | kon [1]: 740000 M⁻¹ s⁻¹
B1: humanized antibody 9338 (antibody, human IgG1, kappa, V domains shown)
VH: QVQLVQSGAEVKKPGSSVKVSCKASGYTFTSYWMHWVRQAPGQGLEWMGYINPSSGHIENNQKFKDRVTITADKSTSTAYMELSSLRSEDTAVYYCARGRFAYWGQGTLVTVSS
VL: EIVLTQSPATLSLSPGERATLSCSASSSVSSGYLYWYQQKPGQAPRLLIYSTSNLASGIPARFSGSGSGTDFTLTISSLEPEDFAVYYCHQWSSYPFTFGSGTKLEIKR
notes: also called Hu9338; hu9338

binding result (Mouse Blade 1-3): no binding (tested: 50 µg/ml) | binding result (LS5): no binding (tested: 50 µg/ml) | Kd [1]: 0.086 nM | koff [1]: 1.6e-05 s⁻¹ | kon [1]: 180000 M⁻¹ s⁻¹ | Kd [2]: 1.2 nM | koff [2]: 7.6e-05 s⁻¹ | kon [2]: 62000 M⁻¹ s⁻¹
B2: humanized antibody 9006 (antibody, human IgG1, kappa, V domains shown)
VH: QVQLVQSGSELKKPGASVKVSCKASGYTFTNFRMNWVKQAPGQGLKWMGWINTYTGEPTYVDDLKGRFVFSLDTSVSTAYLQISSLKAEDTAVYYCARKGIARAMDYWGQGTTVTVSS
VL: DIVMTQSPDSLAVSLGERATINCKSSQSLLDSGNQKNYLAWYQQKPGQPPKLLIFGASTRESGVPDRFSGSGSGTDFTLTISSLQAEDVAVYYCQNDHSYPYTFGQGTKLEIKR
notes: also called Hu9006; hu9006

Reference: US20180327500A1 (SYMPHOGEN A S, published 2018)
